Test results reported in paper PMC10276851, “Tozorakimab (MEDI3506): an anti-IL-33 antibody that inhibits IL-33 signalling via ST2 and RAGE/EGFR to reduce inflammation and epithelial dysfunction” (Scientific Reports, 2023).
Each block holds one binder with its values, some of them ahead of it.

B3: reduced interleukin-33 (IL-33^red), recombinant human, residues 112–270 (ligand, UniProt O95760 112-270, looked up)
chain: SITGISPITEYLASLSTYNDQSITFALEDESYEIYVEDLKKDEKKDKVLLSYYESQHPSNESGDGVDGKMLMVTLSPTKDFWLHANNKEHSVELHKCEKPLPDQAFFVLHNMHSNCVSFECKTDPGVFIGVKDNHLALIKVDSSENLCTENILFKLSET
notes: interleukin-33, human, residues 112–270, reduced form (free cysteines); Other assays used a biotinylated Avi-tag histidine-tag form or an N-terminally tagged form; also called wild-type IL-33; source: recombinant
B4: soluble serum stimulated 2 (sST2), the truncated, soluble form of ST2 (receptor, UniProt Q01638-2 19-328, looked up)
chain: KFSKQSWGLENEALIVRCPRQGKPSYTVDWYYSQTNKSIPTQERNRVFASGQLLKFLPAAVADSGIYTCIVRSPTFNRTGYANVTIYKKQSDCNVPDYLMYSTVSGSEKNSKIYCPTIDLYNWTAPLEWFKNCQALQGSRYRAHKSFLVIDNVMTEDAGDYTCKFIHNENGANYSVTATRSFTVKDEQGFSLFPVIGAPAQNEIKEVEIGKNANLTCSACFGKGTQFLAAVLWQLNGTKITDFGEPRIQQEEGQNQSFSNGLACLDMVLRIADVKEEDLLLQYDCLALNLHGLRRHTVRLSRKNPSKECF

How the values were obtained:
IL-33ox = molecular target: T1, IL-33ox (Homo sapiens, UniProt O95760); test: SPR
T1 chain: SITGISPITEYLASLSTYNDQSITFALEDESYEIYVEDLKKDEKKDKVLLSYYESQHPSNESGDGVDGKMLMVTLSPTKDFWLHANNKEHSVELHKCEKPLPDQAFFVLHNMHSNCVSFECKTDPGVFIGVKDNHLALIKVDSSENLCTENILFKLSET

IL-33red = molecular target: T2, IL-33red (Homo sapiens, UniProt O95760); test: KinExA
T2 chain: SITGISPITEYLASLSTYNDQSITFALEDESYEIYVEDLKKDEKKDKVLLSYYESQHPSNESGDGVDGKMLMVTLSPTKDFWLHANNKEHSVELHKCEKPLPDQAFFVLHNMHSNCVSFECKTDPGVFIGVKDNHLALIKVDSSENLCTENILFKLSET

[1] = molecular target: B4; test: KinExA (kinetic exclusion assay); measurement of the association rate constant (ka) of IL-33 interacting with sST2 in free solution; details: both partners purified
[2] = molecular target: B4; test: KinExA (kinetic exclusion assay); equilibrium in free solution; IL-33^red against fixed sST2 (30 pM and 2.0 pM datasets), 1:1 binding model fitted to both datasets simultaneously; details: both partners purified
[3] = molecular target: B3; test: cell-based or functional assay
[4] = molecular target: T3, endogenous IL-33^red derived from human lung tissue (mixture of full-length and N-terminally truncated forms) (human (endogenous in lung tissue), UniProt O95760 1-270); test: cell-based or functional assay
T3 sequence (looked up): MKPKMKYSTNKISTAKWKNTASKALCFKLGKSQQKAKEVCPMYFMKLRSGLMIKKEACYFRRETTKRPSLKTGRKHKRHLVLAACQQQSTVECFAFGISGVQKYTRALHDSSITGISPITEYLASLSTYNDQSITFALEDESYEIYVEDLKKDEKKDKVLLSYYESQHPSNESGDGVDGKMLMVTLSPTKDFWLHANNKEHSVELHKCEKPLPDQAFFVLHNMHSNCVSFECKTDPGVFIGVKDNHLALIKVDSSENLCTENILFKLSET

Kd (IL-33ox): 41000 pM
B1: tozorakimab Fab (antibody, V domains shown)
VH: EVQLLESGGGLVQPGGSLRLSCAASGFTFSSYAMSWVRQAPGKGLEWVSGISAIDQSTYYADSVKGRFTISRDNSKNTLYLQMNSLRAEDTAVYYCARQKFMQLWGGGLRYPFGYWGQGTMVTVSS
VL: SYVLTQPPSVSVSPGQTASITCSGEGMGDKYAAWYQQKPGQSPVLVIYRDTKRPSGIPERFSGSNSGNTATLTISGTQAMDEADYYCGVIQDNTGVFGGGTKLTVLG
modifications: oxidized IL-33

Kd (IL-33red): 0.03 pM
B2: tozorakimab (antibody, V domains shown)
VH: EVQLLESGGGLVQPGGSLRLSCAASGFTFSSYAMSWVRQAPGKGLEWVSGISAIDQSTYYADSVKGRFTISRDNSKNTLYLQMNSLRAEDTAVYYCARQKFMQLWGGGLRYPFGYWGQGTMVTVSS
VL: SYVLTQPPSVSVSPGQTASITCSGEGMGDKYAAWYQQKPGQSPVLVIYRDTKRPSGIPERFSGSNSGNTATLTISGTQAMDEADYYCGVIQDNTGVFGGGTKLTVLG

Binder: B3
kon [1]: 1.5e+08 M⁻¹ s⁻¹
Kd [2]: 0.09 pM

Binder: B4
IC50 of inhibition of IL-8 release from HUVECs driven by recombinant human IL-33^red (residues 112–270) [3]: 424 pM
IC50 of inhibition of IL-8 release from HUVECs treated with human lung lysate (endogenous IL-33^red) [4]: 32 pM
